Consider one molecule from publication PMC3187938.

The assay deals with affinity-matured, humanized, antiprostate stem-cell antigen (PSCA) minibody (clone A11.1 2C3). Description: SEC. A general note: In gel filtration, larger molecules generally elute earlier.

B1: affinity-matured, humanized, antiprostate stem-cell antigen (PSCA) minibody (clone A11.1 2C3) (antibody, V domains shown)
VH: EVQLVEYGGGLVQPGGSLRLSCAASGFNIKDYYIHWVRQAPGKGLEWVAWIDPENGDTEFVPKFQGRATMSADTSKNTAYLQMNSLRAEDTAVYYCKTGGFWGQGTLVTVSS
VL: DIQLTQSPSTLSASMGDRVTITCSASSSVRFIHWYQQKPGKAPKRLIYDTSKLASGVPSRFSGSGSGTDFTLTISSLQPEDFATYYCQQWGSSPFTFGQGTKVEIK
As a reminder, the stoichiometry N is the number of molecules, sites or subunits per partner or assembly. For B1, the stoichiometry N is 2.
